In patent US6537804B1, “BCR-ABL directed compositions and uses for inhibiting Philadelphia chromesome stimulated cell growth” (Board of Regents, The University of Texas Systems, priority 1995, dated 2003):

Experiments:
Format in all cases: biochemical
casein = assay: Immune complex kinase assay of mutant P160 BCR, transphosphorylation of casein
Description: (§1) Mutant forms of P160^BCR were expressed in COS-1 cells and tested for serine/threonine kinase activities in immune complex kinase assays.
(§2) Using the intensities of the P160^BCR bands as an indication of the amount of active P160^BCR in the immune complex and the intensities of the casein bands as a measure of transphosphorylation activity, the transphosphorylation activity of the Y360F Bcr mutant was reduced about sevenfold, compared with that of the wild type. Similarly, the Y360F Bcr mutant was also defective in transphosphorylating another exogenous substrate, histone H1.
The amounts of Bcr within these immune complexes were quantitated in two ways. In a first method, the amounts of Bcr mutants would be underestimated by about 10%, compared with that of the wild type. On the basis of these measurements, the specific activity of transkinase activity (casein intensity/P160^BCR intensity) of the Y360F Bcr mutant (0.03) was reduced more than 20-fold in this study, compared with that of the wild type.
The second method of estimating the amounts of P160^BCR in immune complexes involved the Western blotting of these immune complexes with an anti-Bcr antibody. The specific activity of Y360F was reduced by about sixfold. […] By using autophosphorylation of the Bcr protein as a measure of its relative amount, the reduction of Bcr's transkinase by the Y360F mutation was about sevenfold, confirming the results obtained by the Western blot method.

histone H1 = assay: Immune complex kinase assay of mutant P160 BCR, transphosphorylation of histone H1
Description: as §1, §2

P160^BCR = molecular target: T1, P160^BCR (Homo sapiens, UniProt P11274, Y360F); assay: Immune complex kinase assay of mutant P160 BCR, autophosphorylation
T1 construct: The original human full length BCR cDNAs were obtained from Dr. John Groffen; expressed in transfected cells; host or cells: COS-1
T1 sequence (P11274 1-1271 Y360F): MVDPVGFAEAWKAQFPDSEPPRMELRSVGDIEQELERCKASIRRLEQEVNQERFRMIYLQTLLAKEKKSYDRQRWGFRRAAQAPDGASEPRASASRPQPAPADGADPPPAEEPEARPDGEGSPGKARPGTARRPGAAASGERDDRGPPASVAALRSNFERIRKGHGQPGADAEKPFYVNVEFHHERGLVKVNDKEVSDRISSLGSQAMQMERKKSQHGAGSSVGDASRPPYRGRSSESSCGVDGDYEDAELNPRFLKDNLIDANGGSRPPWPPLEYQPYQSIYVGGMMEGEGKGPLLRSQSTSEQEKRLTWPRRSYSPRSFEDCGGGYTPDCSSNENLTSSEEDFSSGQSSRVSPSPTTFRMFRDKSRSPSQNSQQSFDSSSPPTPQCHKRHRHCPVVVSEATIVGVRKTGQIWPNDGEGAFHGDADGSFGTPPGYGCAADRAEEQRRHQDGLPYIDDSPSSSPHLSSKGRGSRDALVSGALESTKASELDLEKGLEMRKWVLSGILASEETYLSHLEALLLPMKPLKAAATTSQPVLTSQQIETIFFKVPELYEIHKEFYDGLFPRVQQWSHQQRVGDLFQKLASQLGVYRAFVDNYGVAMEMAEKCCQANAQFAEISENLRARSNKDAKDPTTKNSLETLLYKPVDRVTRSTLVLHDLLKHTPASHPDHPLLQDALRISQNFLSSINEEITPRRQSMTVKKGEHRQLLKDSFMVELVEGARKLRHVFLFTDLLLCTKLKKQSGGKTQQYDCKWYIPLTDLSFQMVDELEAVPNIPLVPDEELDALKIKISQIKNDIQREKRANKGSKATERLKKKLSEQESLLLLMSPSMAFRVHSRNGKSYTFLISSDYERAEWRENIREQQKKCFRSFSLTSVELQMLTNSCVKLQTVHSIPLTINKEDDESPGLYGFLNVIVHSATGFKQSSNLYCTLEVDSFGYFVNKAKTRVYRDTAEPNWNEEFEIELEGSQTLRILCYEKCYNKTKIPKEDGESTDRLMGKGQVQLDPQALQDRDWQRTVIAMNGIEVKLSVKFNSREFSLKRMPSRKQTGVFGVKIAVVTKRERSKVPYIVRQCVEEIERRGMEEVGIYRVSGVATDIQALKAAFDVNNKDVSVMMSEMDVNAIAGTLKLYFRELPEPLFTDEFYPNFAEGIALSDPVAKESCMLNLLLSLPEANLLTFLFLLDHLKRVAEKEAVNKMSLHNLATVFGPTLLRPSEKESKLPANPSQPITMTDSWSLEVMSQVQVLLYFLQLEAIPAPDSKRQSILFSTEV
Description: as §1

[1] = first method of quantitating Bcr in immune complexes

- Reduction of transphosphorylation activity compared with wild type, relative to P160 BCR autophosphorylation band intensity (casein; casein band intensity / P160 BCR band intensity): about sevenfold
- Ability to transphosphorylate casein compared with wild-type Bcr (casein; mutant P160 BCR expressed in COS-1 cells): severely inhibited
- Transphosphorylation of histone H1 (histone H1): defective
- P160^BCR autophosphorylation (P160^BCR): not detectably altered
B1: Y360F Bcr mutant: P160 BCR with tyrosine 360 to phenylalanine mutation, expressed in COS-1 cells (protein, UniProt P11274 1-1271, looked up, variant Y360F)
Breakpoint cluster region …: T1 sequence (P11274 1-1271 Y360F)
- Reduction of specific activity compared with wild type (casein; P160 BCR amount by Western blotting of immune complexes with anti-Bcr antibody): about sixfold
- Reduction of specific transkinase activity compared with wild type (casein; [1]): more than 20 fold
- Specific activity of transkinase activity (casein intensity/P160^BCR intensity) (casein; [1]): 0.03
